Assay results taken from article PMC2597217.

B1: IRE (dsDNA)
DNA 1: TGGTTTGTTTTGCTTG
DNA 2: CAAGCAAAACAAACCA
B2: DBE1 (dsDNA)
DNA 1: TGGTTTGTTTACCTTG
DNA 2: CAAGGTAAACAAACCA
B3: DBE2 (dsDNA)
DNA 1: TCTTGTTTACATTTTG
DNA 2: CAAAATGTAAACAAGA

Key:
FoxO1 DBD 151-256 = FoxO1 DBD 151-256 (human, UniProt Q12778 151-256); experiment: EMSA
FoxO1 DBD 151-266 [1] = target: T1, FoxO1 DBD 151-266 (human, UniProt Q12778 151-266); experiment: crystal structure
FoxO1 DBD 151-266 [2] = target: T1, FoxO1 DBD 151-266; experiment: EMSA

T1 sequence (Q12778 151-266): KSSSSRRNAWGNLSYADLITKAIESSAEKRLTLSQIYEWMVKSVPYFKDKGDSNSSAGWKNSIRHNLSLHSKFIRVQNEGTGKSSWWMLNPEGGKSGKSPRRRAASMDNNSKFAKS
FoxO1 DBD 151-256, sequence (Q12778 151-256): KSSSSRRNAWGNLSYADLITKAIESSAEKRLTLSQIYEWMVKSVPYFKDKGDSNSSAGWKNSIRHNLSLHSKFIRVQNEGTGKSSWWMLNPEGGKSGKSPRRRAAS

Binder | binding result (FoxO1 DBD 151-256) | binding result (FoxO1 DBD 151-266 [1]) | binding signal (FoxO1 DBD 151-266 [2])
B1 | binds | binds | 
B2 |  |  | 2 fold affinity vs IRE
B3 |  |  | 5 fold affinity vs DBE1
